# From patent US20190338035A1 (EUREKA THERAPEUTICS, published 2019)
# Positions count from the first letter of the chain named. In names and notes the source's numbering stands.
# B1: Phage clone 32 (scFv)
# scFv: QSVLTQPPSVSGAPGQRVTISCTGSSSNLGAGYDVHWYQQLPGTAPKVLVYFNNNRPSGVPDRFSGSKSGTSASLAITGLQAEDEADYYCQSYDSSLSASVFGTGTKVTVLGSRGGGGSGGGGSGGGGSLEMAQVQLVESGAEVKKPGASVKVSCKASGYTFTSYTITWVRQAPGQGLEWMGWISPYNGNTNYAQNLQGRVTMTTDTSTTTAYMELRSLTSDDTAVYYCARSWEHGFPYDEWGQGTLVTVSS
# B2: Phage clone 33 (scFv)
# scFv: QSVLTQPPSVSGAPGQRVTIFCTGSSSNIGAGYDVHWYQQLPGTAPKLLIYGNNNRPSGVPDRFSGSKSGTSASLAITGLQAEDEADYYCQSYDTSLTPVFGGGTKLTVLGSRGGGGSGGGGSGGGGSLEMAEVQLVQSGAEVRKPGSSVKVSCKASAGTFNRYSLSWVRQAPGQGLEWVGRIIPIIGVADYAQKFQGRVTITADKSATTAYMELHSLRSEDTAVYYCARQEYSYAMDYWGQGTLVTVSS
# notes: fusion to the phage coat protein not described
# B3: Phage clone 34 (scFv)
# scFv: QSVLTQPPSVSGAPGQRVTISCTGSSLNLGAGYDVHWYQQFPGTAPKLLIFANTNRPSGVPDRFSASKSGTSASLAITGLQAEDEADYFCQSYDNSLSGYVFGTGTKVTVLGSRGGGGSGGGGSGGGGSLEMAQVQLVQSGAEVKKPGSSVKVSCKASGGTFSSYAISWVRQAPGQGLEWMGGIIPIFGTANYAQKFQGRVTITADESTSTAYMELSSLRSEDTAVYYCARSYWTFEYSIDSWGQGTLVTVSS
# B4: Phage clone 35 (scFv)
# scFv: SYVLTQPPSASGTPGQRVTISCSGSTFNIGSNTVNWYQQLPATAPKLLIYSNNQRPSGVPDRFSGSKSGTSASLAISGLQSEDAAAYYCAAWDDSLSGHVVFGGGTKLTVLGSRGGGGSGGGGSGGGGSLEMAEVQLVQSGAEVKKPGASVKVSCKASGYTFTSYGISWVRQAPGQGLEWMGWISAYNGNTNYAQKLQGRVTMTTDTSTSTAYMELRSLRSDDTAVYYCARYYESGYPFDWWGQGTLVTVSS
# B5: Phage clone 36 (scFv)
# scFv: SSELTQDPAVSVALGQTVRITCQGDSLRSYYANWYQQKPGQAPVLVIYAKSNRPSGIADRFSGSSSGNTASLTITGAQAEDEADYYCNSRDSSGNRWVFGGGTKVTVLGSRGGGGSGGGGSGGGGSLEMAEVQLVQSGAEVKKPGASVKVSCKASGYTFTGYYMHWVRQAPGKGLEWMGGFDPEDGETIYAQKFQGRVTMTEDTSTDTAYMELSSLRSEDTAVYYCARSSWWSPVTYYDIWGQGTLVTVSS
# notes: as for B2
# B6: Phage clone 38 (scFv)
# scFv: SYELTQPPSVSVAPGKTARITCGGNNIGSKSVNWYQQKPGQAPVLVIYYDNDRPSGIPERFSGSNSGNTATLTISRVEAGDEADYYCQVWNSSSDHYVFGTGTKVTVLGSRGGGGSGGGGSGGGGSLEMAQMQLVQSGAEVKTTGASVRVSCKASGYTFTDYYLHWVRQAPGQGLEWMGWINPHSGGTNYAQKFQGRVTMTRDTSISTAYMELSSLRSDDTAVYYCAREDYSGSGSSDAWGQGTLVTVSS
# notes: as for B2
# B7: Phage clone 31 (scFv)
# scFv: QAVLTQPSSLSASPGASASLTCTLRSGINVGTYRIYWYQQKPGSPPQYLLRYKSDSDKQQGSGVPSRFSGSKDASANAGILLISGLQSEDEADYYCMIWHSSAWVFGGGTKLTVLGSRGGGGSGGGGSGGGGSLEMAEVQLVESGGGLVQPGGSLRLSCAASGLTFDRYAMSWVRQAAGKGLERFSAITGDGYYTYYADSVKGRFTISRDNSKNTLYLQMNSLGAEDTAVYYCARLSGIGRSSYDGWGQGTLVTVSS
# notes: as for B2
# B8: Phage clone 13 (scFv)
# scFv: DVVMTQSPLSLPVTLGQPASISCRSSQSLIYSNGNTYLTWFHQRPGQPPRRLIHKVSNRDSGVPDRFSGSGSGSDFTLKISRVEAEDVGIYYCMQGTHWPPTFGGGTKLEIKRSRGGGGSGGGGSGGGGSLEMAEVQLVQSGAEVKKPGESLKISCKGSGYSFTSYWIGWVRQMPGKGLEWMGIIYPGDSDTRYSPSFQGQVTISADKSISTAYLQWSSLKASDTAMYYCARGYDVWGQGTLVTVSS
# notes: as for B2
# B9: Phage clone 5 (scFv)
# scFv: B8 scFv with I30V, T39N, P48S, H54Y, K55E, S74T, I90V, V236G
# notes: fusion to the phage coat protein not described; also called anti-HMC scFv 5
# B10: Phage clone 16 (scFv)
# scFv: B8 scFv with V236S
# notes: as for B2
# B11: Phage clone 10 (scFv)
# scFv: EIVLTQSPLSLPVTLGQPASISCRSSQSLVYSNGNTYLSWFHQRPGQSPRRLIYKVSKRDSGVPDRFSGSGSGTDFTLKISRVEAEDVGVFYCMQGTYWPYTFGQGTKLEIKRSRGGGGSGGGGSGGGGSLEMAEVQLVQSGAEVKKPGESLKISCKGSGYSFTSYWIGWVRQMPGKGLEWMGIIYPGDSDTRYSPSFQGQVTISADKSISTAYLQWSSLKASDTAMYYCARGFDNWGQGTLVTVSS
# notes: as for B2
# B12: WT H3.1 26-35 peptide (peptide)
# peptide: RKSAPATGGV
# notes: Free synthetic peptide pulsed onto T2 cells; also called H3.1 26-35 WT peptide
# B13: mutant histone K27M-H3.1 26-35 peptide (peptide)
# peptide: RMSAPATGGV
# notes: Free synthetic peptide pulsed onto T2 cells
# B14: mutant histone K27M-H3.3 26-35 peptide (peptide)
# peptide: RMSAPSTGGV
# notes: as for B13
# Molecular target: T1, WT H3.3 26-35 peptide/HLA-A*02:01 complex on T2 cells (human)
# T1 construct: whole, on cells; T2 cells pulsed with the synthetic peptide; also called T2-WT H3.3; T2-WT 3.3
# Assay: flow cytometry, scFv phage on T2 cells, anti-M13 + labelled anti-mouse IgG
row,Binder,Median MFI (PE-A)
1,B1,90800 MFI
2,B2,49100 MFI
3,B3,8340 MFI
4,B4,84200 MFI
5,B5,33600 MFI
6,B6,32900 MFI

# Molecular target: T2, HLA-A*02:01 on T2 cells without peptide loading (human)
# T2 construct: whole, on cells; TAP-deficient T2 cells with no exogenous peptide
# Assay: as above
row,Binder,Median MFI (PE-A)
1,B1,132 MFI
2,B3,109 MFI
3,B4,125 MFI
4,B6,66 MFI

# Molecular target: T3, control peptide mixture P20/HLA-A*02:01 complexes on T2 cells (human)
# T3 construct: whole, on cells; A pool of 20 different peptide/HLA-A*02:01 complexes on one cell population, not a single complex; also called T2-P20
# Assay: as above
row,Binder,Median MFI (PE-A)
1,B1,146 MFI
2,B2,2860 MFI
3,B3,109 MFI
4,B4,124 MFI
5,B5,11000 MFI
6,B6,128 MFI

# Molecular target: T2, HLA-A*02:01 on T2 cells without peptide …
# Assay: flow cytometry, scFv phage on T2 cells
row,Binder,binding result
1,B7,no binding

# Molecular target: T4, WT H3.1 26-35 peptide/HLA-A*02:01 complex on T2 cells (human)
# T4 construct: whole, on cells; T2 cells pulsed with the synthetic peptide; also called T2-WT H3.1; T2-WT 3.1
# Assay: flow cytometry, scFv phage on T2 cells, anti-M13 + PE anti-mouse IgG
row,Binder,Median MFI (PE-A)
1,B8,761 MFI
2,B9,320 MFI
3,B10,2320 MFI
4,B11,770 MFI
5,B7,529 MFI

# Molecular target: T1, WT H3.3 26-35 peptide/HLA-A*02:01 …
# Assay: as above
row,Binder,Median MFI (PE-A)
1,B8,784 MFI
2,B9,305 MFI
3,B10,2440 MFI
4,B11,849 MFI
5,B7,777 MFI

# Molecular target: T2, HLA-A*02:01 on T2 cells without peptide …
# Assay: as above
row,Binder,Median MFI (PE-A)
1,B8,543 MFI
2,B10,1700 MFI
3,B11,686 MFI
4,B7,125 MFI

# Molecular target: T3, control peptide mixture P20/HLA-A*02:01 …
# Assay: as above
row,Binder,Median MFI (PE-A)
1,B8,1560 MFI
2,B9,703 MFI
3,B10,4190 MFI
4,B11,2010 MFI
5,B7,128 MFI

# Molecular target: T2, HLA-A*02:01 on T2 cells without peptide …
# Assay: T2 stabilisation assay, BB7.2 staining, flow cytometry
row,Binder,binding result
1,B12,binds
2,B13,binds
3,B14,binds
